Results reported in patent publication US20230192897A1 (NUMAB THERAPEUTICS, published 2023).

Assays:
[1] = biological target: T1, CD137 on Jurkat NFkB reporter cells (human, UniProt Q07011 24-255); assay: cell-based or functional assay
[2] = biological target: T2, biotinylated human PDL1 (human, UniProt Q9NZQ7 19-238, limits assumed, biotinylated); assay: competition ELISA B7.1/PDL1
T2 construct: also called biotinylated PDL1
Description: Plates were blocked for 1 hour at room temperature by adding 300 μl of PBS with 1% BSA and 0.2% tween (dilution buffer) to each well. […] The mixtures were pre-incubated for 1 hour at room temperature under gentle agitation on a rotating mixer (21 rpm) and added to the microplates after 3 wash cycles with 450 μl wash buffer per well. Plates were incubated for 1.5 hours at room temperature under gentle agitation, then 10 ng/ml streptavidin-polyHRP40 was added to each microplate well after three washes with 450 μl of wash buffer per well. After 1 h incubation at RT, plates were washed three times with 450 μl wash buffer and TMB substrate solution was added. The enzymatic reaction was stopped after 6 minutes by addition of 1 M HCl and absorbance was measured at 450 nm using 690 nm as a reference wavelength. For calculation of IC₅₀ values, a four-parameter logistic (4PL) curve fit was performed in Graph Pad Prism using reference subtracted values.

[3] = biological target: T1, CD137 on Jurkat NFkB reporter cells; assay: cell-based or functional assay; remark: listed apart in the source
[4] = biological target: T3, Fc tagged human PDL1 (human, UniProt Q9NZQ7 19-239); assay: SPR
T3 construct: Bought (Sino Biological, cat. 10084-H02H); captured on the SPR chip; also called PDL1-Fc chimeric protein
Description: (§1) Affinity to PDL1 of the different species was determined by SPR measurements using a Biacore T200 device (GE Healthcare). An antibody specific for the Fc region of human IgGs was immobilized on a sensor chip (CM5 sensor chip, GE Healthcare) by amine-coupling. For all formats, with the exception of the Fc containing Morrison formats, PDL1-Fc chimeric protein from different species were captured by the immobilized antibody.
(§2) Three-fold serial dilutions of the molecules specific for PDL1 (0.12-90 nM) were injected into the flow cells for three minutes and dissociation was monitored for 10 minutes. After each injection cycle, surfaces were regenerated with one injection of a 3 M MgCl₂ solution. The apparent dissociation (kd) and association (kₐ) rate constants and the apparent dissociation equilibrium constant (KD) were calculated using one-to-one Langmuir binding model. Affinity to CD137 of the different species was determined using the identical setup as for PDL1 with the exception that CD137-Fc chimeric protein from different species were captured by the immobilized antibody.

[5] = biological target: T4, Fc tagged human CD137 (human, UniProt Q07011 24-186); assay: SPR
T4 construct: also called CD137-Fc chimeric protein
Description: as §1, §2

[6] = biological target: human PDL1 on cells (human, UniProt Q9NZQ7 19-290); assay: cell-based or functional assay
[7] = biological target: T2, biotinylated human PDL1; assay: competition ELISA PD-1/PDL1
Description: Plates were blocked for 1 hour at room temperature by adding 300 μl of PBS with i%BSA and 0.2% tween (dilution buffer) to each well. Inhibitors were serially diluted in 3-fold steps to final concentrations ranging from 300 to 0.005 ng/ml in dilution buffer containing 1 ng/ml biotinylated human PDL1. The mixtures were pre-incubated for 1 hour at room temperature under gentle agitation on a rotating mixer (21 rpm) and added to the microplates after 3 wash cycles with 450 μl wash buffer per well. Plates were incubated for 1.5 hours at room temperature under gentle agitation, then 10 ng/ml streptavidin-polyHRP40 was added to each microplate well after three washes with 450 μl of wash buffer per well. After 1 h incubation at RT, plates were washed three times with 450 μl wash buffer and TMB substrate solution was added. The enzymatic reaction was stopped after 6 minutes by addition of 1 M HCl and absorbance was measured at 450 nm using 690 nm as a reference wavelength. For calculation of IC₅₀ values, a four-parameter logistic (4PL) curve fit was performed in Graph Pad Prism using reference subtracted values.

B1: PRO1431 (other)
chain: DIQMTQSPSSLSASVGDRVTITCQASQSINDYLAWYQQKPGKAPKLLIYKASTLASGVPSRFSGSGSGTDFTLTISSLQPEDFATYYCQQGYIITDIDNVFGTGTKVTVLGGGGGSEVQLVESGGGLVQPGGSLRLSCAASGFSFSNSYWICWVRQAPGKCLEWIGCTFVGSSDSTYYANWAKGRFTISRDNSKNTVYLQMNSLRAEDTAVYYCARHPSDAVYGYANNLWGQGTLVTVSSGGGGSGGGGSGGGGSGGGGSIQMTQSPSSLSASVGDRVTITCQASQSINNVLAWYQQKPGKAPKLLIYRASTLASGVPSRFSGSGSGTDFTLTISSLQPEDFATYYCQSSYGNYGDFGCGTKVTVLGGGGGSQVQLQESGPGLVKPSETLSLTCKASGFSFSSGYDMCWVRQPPGKGLEWIACVVAGSVDITYYASWAKGRVTISKDSSKNQVSLKLSSVTAADTAVYYCARKDAYSDAFNLWGQGTLVTVSSGGGGSGGGGSIQMTQSPSSLSASVGDRVTITCQSSESVYSNNQLSWYQQKPGQPPKLLIYDASDLASGVPSRFSGSGSGTDFTLTISSLQPEDFATYYCAGGFSSSSDTAFGGGTKLTVLGGGGGSGGGGSGGGGSGGGGSEVQLVESGGGLVQPGGSLRLSCAASGFSLSSNAMGWVRQAPGKGLEYIGIISVGGFTYYASWAKGRFTISRDNSKNTVYLQMNSLRAEDTATYFCARDRHGGDSSGAFYLWGQGTLVTVSS
notes: trispecific scDb-scFv; also called 38-02-A04 sc13 scDb-i/33-03-G02 sc18 scDb-o/19-01-H04 sc03 scFv
What does the source list for B1?
IC50 (ng/ml) (EC50 in Table 16C), NFkB reporter, HCC827 + IFNg, 24 h, +HSA [1]: 18.4 ng/mL; rel. IC50 (PRO1186/test), 24 h [1]: 1.02 fold; IC50 [2]: 3.31 ng/mL; rel. IC50 (IC50 avelumab/IC50 test) [2]: 0.84 fold; Area under the curve (calculated using PRO885 normalized data), first line (6 h by the order of the upper part) [3]: 83.2; Area under the curve (calculated using PRO885 normalized data), second line (24 h by the order of the upper part) [3]: 119; EC50 [ng/ml], NF-kB reporter, HCC827 + IFNg, +HSA, 6 h [3]: 21 ng/mL; IC10/EC90 ratio, first line (6 h by the order of the upper part) [3]: 5.03; IC10/EC90 ratio, second line (24 h by the order of the upper part) [3]: 16.1; Maximum NF-kB activation (rel. to PRO1186) [%], first line (6 h by the order of the upper part) [3]: 55.3%; Maximum NF-kB activation (rel. to PRO1186) [%], second line (24 h by the order of the upper part) [3]: 68.6%; rel. Area under the curve (AUCsample/AUCPRO1186), first line (6 h by the order of the upper part) [3]: 0.4 fold; rel. Area under the curve (AUCsample/AUCPRO1186), second line (24 h by the order of the upper part) [3]: 0.54 fold; rel. EC50 (EC50, PRO1186/EC50, sample), NF-kB reporter, 6 h [3]: 0.68 fold; rel. EC50 (EC50, PRO1186/EC50, sample), NF-kB reporter, 24 h [3]: 1.02 fold; rel. IC10/EC90 (ratio of sample/ratio of PRO1186), first line (6 h by the order of the upper part) [3]: 0.3 fold; rel. IC10/EC90 (ratio of sample/ratio of PRO1186), second line (24 h by the order of the upper part) [3]: 1.74 fold; koff [4]: 4.5e-05 s⁻¹; Kd [5]: 1.7 nM; koff [5]: 0.00075 s⁻¹; kon [5]: 450000 M⁻¹ s⁻¹; IC50 (ng/ml), NF-AT potency assay, +HSA [6]: 9.83 ng/mL; rel. IC50 (avelumab/test), +HSA [6]: 3.73 fold; IC50 [7]: 2.75 ng/mL; rel. IC50 (IC50 avelumab/IC50 test) [7]: 0.51 fold

B2: PRO1473 (other)
chain: DFQLTQSPSSLSASVGDRVTITCQASQSINDYLAWYQQKPGKSPKLLIYKASTLASGVPSRFSGSGSGTDFTLTISSLQPEDFATYYCQQGYIITDIDNVFGTGTKVTVLGGGGGSEVQLVESGGGLVQPGGSLRLSCAASGFSFSNSYWICWVRQAPGKCLEWIGCTFVGSSDSTYYANWAKGRFTISRDNSKNTVYLQMNSLRAEDTAVYYCARHPSDAVYGYANNLWGQGTLVTVSSGGGGSGGGGSGGGGSGGGGSIQMTQSPSSLSASVGDRVTITCQASQSINNVLAWYQQKPGKAPKLLIYRASTLASGVPSRFSGSGSGTDFTLTISSLQPEDFATYYCQSSYGNYGDFGCGTKVTVLGGGGGSQSQLQESGPGLVKPSETLSLTCKASGFSFSSGYDMCWVRQPPGKGLEWIACVVAGSVDITYYASWAKGRVTISKDSSKNQVSLKLSSVTAADTAVYFCARKDAYSDAFNLWGQGTLVTVSSGGGGSGGGGSIQMTQSPSSLSASVGDRVTITCQSSESVYSNNQLSWYQQKPGQPPKLLIYDASDLASGVPSRFSGSGSGTDFTLTISSLQPEDFATYYCAGGFSSSSDTAFGGGTKLTVLGGGGGSGGGGSGGGGSGGGGSEVQLVESGGGLVQPGGSLRLSCAASGFSLSSNAMGWVRQAPGKGLEYIGIISVGGFTYYASWAKGRFTISRDNSKNTVYLQMNSLRAEDTATYFCARDRHGGDSSGAFYLWGQGTLVTVSS
notes: trispecific scDb-scFv; also called 38-02-A04 sc13 scDb-i/33-03-G02 sc03 scDb-o/19-01-H04 sc03 scFv
For B2, which “IC50 (ng/ml) (EC50 in Table 16C), NFkB reporter, HCC827 + IFNg, 24 h, +HSA” value [1] is on record?
The value was 0.91 ng/mL.

What about the “rel. IC50 (PRO1186/test), 24 h” value [1] of the same binder?
The value was 3.55 fold.

And the IC50 [2]?
The IC50 was 8.89 ng/mL.

What about the “rel. IC50 (IC50 avelumab/IC50 test)” value [2] of the same binder?
Its value is 1.49 fold.

And the “Area under the curve (calculated using PRO885 normalized data), first line (6 h by the order of the upper part)” value [3]?
The value was 52.3.

And the “Area under the curve (calculated using PRO885 normalized data), second line (24 h by the order of the upper part)” value [3]?
The value was 188.

What about the “EC50 [ng/ml], NF-kB reporter, HCC827 + IFNg, +HSA, 6 h” value [3] of the same binder?
The value was 2.4 ng/mL.

And the “IC10/EC90 ratio, first line (6 h by the order of the upper part)” value [3]?
Its value is 53.9.

What about the “IC10/EC90 ratio, second line (24 h by the order of the upper part)” value [3] of the same binder?
Its value is 15.7.

And the “Maximum NF-kB activation (rel. to PRO1186) [%], first line (6 h by the order of the upper part)” value [3]?
The value was 36.2%.

And the “Maximum NF-kB activation (rel. to PRO1186) [%], second line (24 h by the order of the upper part)” value [3]?
The value was 67.4%.

And the “rel. Area under the curve (AUCsample/AUCPRO1186), first line (6 h by the order of the upper part)” value [3]?
The value was 0.31 fold.

And the “rel. Area under the curve (AUCsample/AUCPRO1186), second line (24 h by the order of the upper part)” value [3]?
Its value is 0.73 fold.

And the “rel. EC50 (EC50, PRO1186/EC50, sample), NF-kB reporter, 6 h” value [3]?
Its value is 2.3 fold.

What about the “rel. EC50 (EC50, PRO1186/EC50, sample), NF-kB reporter, 24 h” value [3] of the same binder?
Its value is 3.55 fold.

And the “rel. IC10/EC90 (ratio of sample/ratio of PRO1186), first line (6 h by the order of the upper part)” value [3]?
The value was 1.01 fold.

What about the “rel. IC10/EC90 (ratio of sample/ratio of PRO1186), second line (24 h by the order of the upper part)” value [3] of the same binder?
Its value is 0.12 fold.

And the Kd [4]?
Its Kd is 0.0082 nM.

And the koff [4]?
Its koff is 2.9e-05 s⁻¹.

What about the kon [4] of the same binder?
The kon was 3.6e+06 M⁻¹ s⁻¹.

And the Kd [5]?
The Kd was 2 nM.

And the koff [5]?
Its koff is 0.0006 s⁻¹.

And the kon [5]?
The kon was 310000 M⁻¹ s⁻¹.

And the “IC50 (ng/ml), NF-AT potency assay, +HSA” value [6]?
Its value is 35.2 ng/mL.

And the “rel. IC50 (avelumab/test), +HSA” value [6]?
The value was 1.11 fold.

What about the IC50 [7] of the same binder?
The IC50 was 4.14 ng/mL.

And the “rel. IC50 (IC50 avelumab/IC50 test)” value [7]?
Its value is 0.56 fold.
